{
  "source": "patent US8575097B2",
  "about": "“Exendin variant and conjugate thereof” (Pegbio Co., Ltd., priority 2009, dated 2013)",
  "test_system": "guinea pigs",
  "test": "Systematically allergic reaction in guinea pigs (Example 23)",
  "format": "in vivo, guinea pig",
  "conditions": "albumin 240 mg/kg via toe vein",
  "excerpt": "44 male healthy guinea pigs were provided, and the body weight of each guinea pig was about 300 g.",
  "data": [
    {"molecule": "chicken ovalbumin (protein, UniProt P01012 2-386, looked up, chicken ovalbumin, albumin group in the guinea pig allergy test) Ovalbumin: GSIGAASMEFCFDVFKELKVHHANENIFYCPIAIMSALAMVYLGAKDSTRTQINKVVRFDKLPGFGDSIEAQCGTSVNVHSSLRDILNQITKPNDVYSFSLASRLYAEERYPILPEYLQCVKELYRGGLEPINFQTAADQARELINSWVESQTNGIIRNVLQPSSVDSQTAMVLVNAIVFKGLWEKAFKDEDTQAMPFRVTEQESKPVQMMYQIGLFRVASMASEKMKILELPFASGTMSMLVLLPDEVSGLEQLESIINFEKLTEWTSSNVMEERKIKVYLPRMKMEEKYNLTSVLMAMGITDVFSSSANLSGISSAESLKISQAVHAAHAEINEAGREVVGSAEAGVDAASVSEEFRADHPFLFCIKHIATNAVLFFGRCVSP", "values": [
      {"measurement": "time to death after stimulation", "value": "< 2", "unit": "min"}
    ]}
  ]
}
